Data on 1 substance can be found in article PMC3753655.

The target in the assay is His6-MS2 coat protein (bacteriophage MS2) (UniProt P03612). Nature of the assay: SEC; Superose 6 (10/300 GL); supernatants of crude cell extracts of E. coli JM101 expression cultures; 50 mM Tris-HCl pH 7.5, 300 mM NaCl; with or without benzonase treatment; reference proteins 669, 400 and 29 kDa. On the technique in general: SEC sorts molecules by how far they enter the pores of the column.

Broadly, the stoichiometry N is the number of molecules, sites or subunits per partner or assembly.

Take “His6-MS2 coat protein (from UniProt P03612 1-130) (natural protein)”: the stoichiometry N stood at 2.
